Source: paper PMC9402891, “Case report: Biochemical and clinical phenotypes caused by cysteine substitutions in the epidermal growth factor-like domains of fibrillin-1” (Frontiers in Genetics, 2022)
One block for each binder: values may come before it.

Biological target: T1, latent transforming growth factor beta-binding protein 1 fragment LTBP1^1141-1395 (LTBP1^cbEGF14cbEGF15) (human, UniProt Q14766-2 1141-1395)
T1 construct: LTBP1, residues 1141-1395: cbEGF14, TB3, EGF3 and cbEGF15 domains (the C-terminal region); the domains named are the C-terminal ones, which fits the short isoform; also called LTBP1 polypeptides
T1 sequence (looked up): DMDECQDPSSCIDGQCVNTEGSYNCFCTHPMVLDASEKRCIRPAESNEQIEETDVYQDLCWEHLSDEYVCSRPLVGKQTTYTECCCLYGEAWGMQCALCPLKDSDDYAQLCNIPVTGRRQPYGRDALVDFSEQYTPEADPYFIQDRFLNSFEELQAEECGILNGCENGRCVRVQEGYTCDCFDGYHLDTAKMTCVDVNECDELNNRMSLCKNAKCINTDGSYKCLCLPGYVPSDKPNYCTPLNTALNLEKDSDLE
Assay: SPR; immobilised partner not stated; running buffer 10 mM HEPES, 150 mM NaCl, 2 mM CaCl2, pH 7.4, 0.005% (v/v) Tween-20; regeneration 50 mM HCl; Biacore T200 (ProteOn system also named)
Settings: both partners purified

Kd: 1230 nM
B1: human fibrillin-1 fragment FBN1^113-287+C160Y (FBN1^E2cbEGF1+C160Y) (domain or fragment)
chain: not shown
notes: fibrillin-1, human, residues 113-287 (EGF2, EGF3, Hyb1 and cbEGF1 domains) with the patient mutation C160Y (c.479G>A) in EGF3; also called mutant recombinant fibrillin-1 polypeptides

Kd: 1530 nM
B2: human fibrillin-1 fragment FBN1^113-287 (FBN1^E2cbEGF1), wild type (domain or fragment)
chain: not shown
notes: fibrillin-1, human, residues 113-287: EGF2, EGF3, Hyb1 and cbEGF1 domains; one of them ends in L288, which may be a residue from the vector; also called wild-type fibrillin-1 polypeptides
